Results from a protein production outcome set (Wang et al. 2014).

Assay: label from the status in PepcDB records
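Also: failed if final PepcDB status was selected cloned or expressed and not failed if soluble or beyond.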

Q: Which protein production does the source give for “MPEMADVMQTQAGDAGAFRHFDLSRVPTPCFVVDEVAIERNLKILRDISDRSGAHVLSALKAFSMFTLAPLVRQYLGGTCASGIYEARLGREEYGGEVATFCAGYKEQDIDEILSLSNHIIFNSPAQKDRFLSRAQAAGVQVGLRINPEHSEGEIAKYDPCAPCSRLGTPVSLLTPETLKGVDGLHMHTLCEQGFEPLLRTWAAVEPKLAPYLPGLKWLNFGGGHHITRADYDRDALIDFLKSLRARHGLDVYLEPGEAVALDAGILVGEILDLPSNGMDLAITDISATCHMPDVIEAPYRPALMDEADSGHTYRLGGPSCLAGDVIGDYTWDQPLTIGQRFAFLDQAHYSMVKTNTFNGVPLPTIALWNSKTDALRIVRQFDYSDFKDRLS” here?
A: not failed

Q: With “MPEVSFIICTRNRVAVLEACLKSVQAACRAHAGFAAELVVVDNGSSDRTAERLASIAAMSDIPFTPVSEPRRGLAAARNAGLRRARGRVLVFVDDDCAVHCDYLRDLERHYASGEQGLIRGGRVELGDPRDLPFTIKRSRVCERLTPDIHPGGFVLGCNMTMHRDVAARIGDFDERFGAGGPLRSAEDTDYLVRAVLLGIPVEYVPDMTIFHHHGRRDRKAIEKLHRDYSLGNGGLCLKHIRHAPWLLRHFYWAARGALRELAGGPAFDRDLDLSHRPIVGMNVLGAARYALLLLARRPQAEPARQDQQANAEAPLLEHHHHHH” as the sequence, how does the protein production read?
A: failed

Q: With “MPEWAAFVGLTGFLLTALLGLARLSQGAVRSDGGVSSTVDGVSMADRDPTIPRFETQRAAAQRQQMRDTLAPSDVSTGALLANVAFTQGLFGVLLVAGAFYFEIPASAFGVTSDALSTGLPAVAIGIGAGIGFWVGNEGAAALADGFGVTFDESLRELLAPDSPGGWVILLGGVLPVIAIVEELLFRAAAIGVPVAGLNAPAWAMAIVASVAFALGHGAQGRVGIVVTGTLGLALAGLFIATNSLLAVVVAHYLVNALELLVHEGLGVDRLWA” as the sequence, how does the protein production read?
A: failed

Q: With “MPFEDALAIVNAAMQTLLGRQLSDIETLIFEGSWQSKTYPQIADGAGYSINYLTTDVGPKFWKVLSQALGEPVNKKNFKAAIRRYCVVQSGGEWESEGFQTQLPSYPSILSWGEAPDVSQFYGREEEQALLQRWIEAERCRLIAVLGMGGIDKSTLTTKVVQGFVQGDGVEEWEGDNINIKKIQNPLQEGQSPTKFKIQHLPSSPATPFTHIIWRSLRNAPPLEALLAELIDLLSEHQETVGDRARLLHWLRKTRCLIVLDNLETILQAGDHAGYYRDGYGDYGELIQLLGETPHQSCVLLTSREKPAEIAVLEGLDGNTRTLQLSGSVATAIAIIQQKGLQGTEEQQQVLCDRYSYNPLALKIVSTTIQDLFDGDISAFLTEDAVIFNSIRRLLDAQFQRLTELEQAIIIWLAINRDWTAIAELAADLVPPVPKVKLLEALESLRWRGLIETQDKRYTLQPVVMEYVTERFIEQINQELEMGQPQYWQQFALLKLTVRDHITETQRRLIVHSTAAQFGDCFPSPELQRQQLQTVLTAIRESVIAGYGVGNLINLSNALDLDLAGFDFSQLTIRQADLRHRLFQHLNFAQANFRDSAFKQTFGSIFSLSYSPAGDYLITGDDVGVVRLWKSAEMQPMQSYPLHRSYVWDLRPSADGRWLATCSEDQTVKITNLATGQLQATLVVAPTIARAIVWIGPDCLAIGGIDGHIRLWYPFTEQAPVLVTAHTDIVNSLSWDANSNLLASSSSDSTVKLWDVETGICHRIWREAVPVRWATWSPDGHTLAISREDGGIVLWNPHSDQAPRYLNGHPETVWSLDWNPDGAWLASSSHDATVRLWDVVTGRCRRILRSHQNWVWYARWHPHQPRIISGGHDGTLKLWDTGTGQCLKSLTGHMANIRAIAPAPDGQTLALGCDDTIVRLCGADSPPSFIHAFGHSHLISDLCWNPTGENLASASHDCNLRVWQRSPLRCTQVLKGHTNWVWSVDWHPTQDLLASGSVDSTIRLWYPTQSTPVKTLMAQTSWILSVRWHPTGRWLASAAGDFTIGLWNSKTWECTHLLTGHTHWIWCLAWSPNGQYLASGGYDNTVFIWKVEKEVTSLRTLEHPTILSAIAWHPDGELLATSCHDGNIRLWHWQTGQCVTRISGHQGEILTLKFSPDGKRLYSSSQDETWKTWDWQTGTCLASDRLDRPYEGMNISEVRGLTEVRKAALRALGATEGSQPPGDLVRWLRKTEQGRKL” as the sequence, how does the protein production read?
A: failed

Q: With “MPFERFVQTGRIAKASAGPLKGRLVAIVDVIDQNRVLVDGPLTGVPRQEYRLNNLHLTKYRIKFPYTAPTRIVRKAWTESDLKAQWKVSPWSVKAQNICKRSSLNDFDRFKLRYAKRQRNKLLTIAFNTLKKRTKADGTPRVLKKDRRERLRAEKAKGGKKAAAKK” as the sequence, how does the protein production read?
A: failed

Q: Which protein production does the source give for “MPFETPDLLGPSEPVPDRLSANEFLLRPLTPTDAEIDYEAVTESGDRLHGIFGPDDEWPTGLTPEQNRIDVCWHYREHQRRDAFTYGVFDPAETTELGCLYVQPTRIEGYDAAVYYWTAAAAVERGLADEIETACREWVATEWPFGRVAYPGRDVSWQAVPAAGTEGD” here?
A: failed

Q: Which protein production does the source give for “MPFLFPKFWVMSAPHDTHVSRRLRRGLASACAVVTAIAAFSPAHAAPSPNKAGPMSGSTGRTTVGQLLTPAGQLTTLGDLPLNEALSPDGRYLIVSNNGQGTQSLQVIKTATGKVVQTIPYKSPESLYMGLAFSPDGTHLFASAAGNHKIRTYHFDCGKLVETSAIQMPVVSPKLTKVNLYPAGLAVTNDSKRLVVADQLADAVSVIDLATNKIQTTHIGHRPVWVTLSKDSTKAFVSSQGGADVAEVDITKSQPLATHKINVGFHPNKSVLTPDGKSLYVANGDADTISVVDVASHRQTATIPVNRNGSKLVGANPTGLALSQDGKRLYVTNSGHNEVAVINAATRKVIGDIPTGWYPTQVLAHDGKLSITSAKGLGAGPNNGPGHPNPTDPRDTAENQYSGSMIKGLLSTVNGMTQRPWPS” here?
A: failed

Q: With “MPFPSLPSPLARALTERNYAEPTPVQQAVLDAVPERDLLVSAQTGSGKTVAFGLAIAGTLLGEDETLPPPGAPLALVIAPTRELALQVQRELTWLYAQTGARIVPCVGGMDPRREARALEAGVHIVVGTPGRLRDHMERGRLVTEGLRAVILDEADEMLDMGFREDLEFILASTPKDRRTLLFSATLPKAIVALAESYQRDALRLAVAGETRGHADIVYRAVRVMPREVEHAVVNILRYVDAPVAIVFCNTRDGVRHLQASLTERGFSAVALSGELGQGERNAALQALRDGRARVCVATDVAARGIDLPGLDLVIHADLPHDAEVMQHRSGRTGRAGRKGTSVVLVPPAKRRRAEQMFAIAKVSPDWSGPPNADEIRILDRERMMSDPLLAEPETEEDREWEREWAEALMERCPPERLAAAFARLYRSRIPVPEEVSDPAYETSRRPDSRSGVPVGASRVGDDEPAAWFRLNLGRRDRAEPRRLLPMLTRRGQIGRGDIGSIRIFDNETTFEVRASAADDFAASFARRGPADVRVERMQGDGPAAAKAPKSPRAQRHRREATKTGRGG” as the sequence, how does the protein production read?
A: failed

Q: Which protein production does the source give for “MPFTVTIEVSKQFETSTLPEKVFALLSDVPRSASYFPDVEKLEPLGSNAFRWIMEKNAIGGHTLKQTIYACTYRSDRVTMSVAWVPVEGEGNARVEGNWQIEFAFIQKIDRYISNLKETFAK” here?
A: failed

Q: For “MPGIDIVIVNWNSGNQLRECLRSIGNLVGEAEPLTVTVVDNASCDGSADGLPEPSCPLRVIRNRANLGFGRASNLGAREGSADYLLFLNPDTRLHPGALSIPLGFMESETGRHVGICGVQCLDETGGVARCCARFPTAWRLVGQALGLDRLFPRWIPPHFLGEWPHDSDRDVDQVIGAFFFVRRAVFEQLGGFDERFFVYYEDLDFALRARRAGWGSRYLAGARIFHRGGGVSRQISARRLHYLTHSKLRYARKHFAGIDAFLVSAAVLLLEPLARSAYALGRGRPGEFADTWKAFGGLYASLCRPGENGRLEHHHHHH”, which protein production is on record?
A: failed

Q: Which protein production does the source give for “MPGITFKEDANERGRQIEHWPLLKNGSIFVIADDGTRYFQEDAKHRHGHVYTHGSWLIPMNNQHPYLIFDQTQYDAFKQEESQAGQLPYPKFMTKLVSAPTIAQLAAKLGVPANNLQQTVTDFNHYTEVGRDFEFGRDPQTMRQLDDGPYYAIAALEHHHHHH” here?
A: not failed

Q: For “MPGPIMQEVAQYLASLSGKAVVINIFAGHADRSLSQTQLAELLDKLLARHPGSAVILLDHRREIRIPLPPEVVINPFNTLHHAMALIAQAELIISPDTSVVHMAAAWNKPLIAVYKDVLLNNRLWAPGYDNARQIIVKCGKVHQHRGLVDRIIAALPETLLEHHHHHH”, which protein production is on record?
A: failed

Q: With “MPGPKDLDPSSSPRALLGAELRHAREKSGLSQEELGARLFVSGSFIGQLESGTRRMQPEYARLLDDVLDTEDFFRRNCTASAKSKYPEHFAQAAEAEGTAREIKEYASMLIPGLLQTPAYARAVCRAYQPTAPDDAIEELVTARMERARMLADPTGPVLWAVVDESALRRSTGGPGVMAEALRHLAHLMRENRVIVQVLPFEAGAHPAMQGCVKLMDFADAPSLVYLEGVGTGRVDDDPATVGRYRFYYELLMVAALSTTKSLSLIEKLAQNYAHGDHP” as the sequence, how does the protein production read?
A: failed

Q: With “MPGPSRKAAAWLPILVILVAMTSIQSGASLAKSLFPVVGAPGVTALRLALGTLILVVVFKPWRLRFSPAQRVPLLLYGLALGAMNYLFYLSLQRIPLGVAVALEFTGPLAVALFGSRRPLDFVWVALAILGLWYLLPLGQNVAQVDLTGALFALGAGACWAVYILTGQRAGEEHGPATVAMGSLIASLVFVPLGMAQATDTLWQWSLLPLGLGIAILSTALPYSLEMMALTRLPTRTFGTLMSLEPALAALSGMIFLGETLKLSQTLALGAIIIASMGATLTMQRQSKVEQVDIN” as the sequence, how does the protein production read?
A: failed

Q: Which protein production does the source give for “MPGQSRFPLPLIAAFFALYVIWGSTYLVIRIGVEYWPPLMLGGIRFIIAGSLMYAFLRWRGVPAPTWAQWKAAGIIGVLLLSCGNGAVTLAEHSGVTSGVAALAVATVPLFTLLCGYFWGARNTRLEWAGIVLGMIGIGMLNLGSNLQSSPMGAALLLFAAAAWAFGSVWSKHLPLPQGAMASAAEMLVGGVVLMIGSALSGEHLDTLPPMEGWLALAYLAGFGSIIAFNAYMYLLKHVRPAAATSYAYVNPAVAVLLGIVFVGETIGIEEAMAMLVIISAVVLIGLPQWRKPKAAAQEEAA” here?
A: failed

Q: Which protein production does the source give for “MPGSLRKMPVWLPIVILLVAMASIQGGASLAKSLFPLVGAPGVTALRLALGTLILIAFFKPWRLRFAKEQRLPLLFYGVSLGGMNYLFYLSIQTVPLGIAVALEFTGPLAVALFSSRRPVDFVWVVLAVLGLWFLLPLGQDVSHVDLTGCALALGAGACWAIYILSGQRAGAEHGPATVAIGSLIAALIFVPIGALQAGEALWHWSVIPLGLAVAILSTALPYSLEMIALTRLPTRTFGTLMSMEPALAAVSGMIFLGETLTPIQLLALGAIIAASMGSTLTVRKESKIKELDIN” here?
A: failed

Q: For “MPHLFYGTAQNGEVIFDEREAHHMRVVRLKEGDVIEATDGNGFSYTCILKSLKKKTAAAKIVKVEEKEKEPTEKLSVVVPIGRWERTRFLIEKCVELGVDEIFFHKFERSQHEISLDKAKIVVREAAKQCKRYLFPKVSFLEKLEFSGNVITLDLDASQNLLDANLEGSITVVVGPEGGFSEKERELLRSSTTIVSLGKKILRFETAAILTVGYIALKKQKI”, which protein production is on record?
A: not failed

Q: Which protein production does the source give for “MPHLNILIVRIEEFLRSIVKITSAPTYKTRVKSFNSYYLKLLKFPPKKDTSDLPVLTDILGVRIICPFLQDINEVERILLKNFKIIEVERKGSERTFREFGYESVHFLLDIPEEFKVGLVLPKNLIFEIQLRTILQDAWAEVEHELVYKSEFSPFDQPLKRKLASINASLSLADIIFQEIRDYQNKLNAELEKRRFEFYSMADEYTAQVLPETNIVQHDNVEHGEELKLAETIDDLILSAIEAHNQNLFDKAEKIYTKIIEQNPNDIVLSVVYKHRGMAYFAQANYEGAYADFLQSCKYNSANFRSFYYVGIALTLLNRDDEAIEYFTKSLEINKFQAHVYFRRALSYFKLALYPEAARDLDSASDLGLAEEDAKKLRIAIAKKIDMV” here?
A: failed
